Reference: patent US20210395374A1

Legend:
[1] = biological target: Human CD3ε/δ (human) (UniProt P07766); assay: kinetic binding analysis (ka/kd); method not stated
[2] = biological target: Cynomolgus CD3ε/δ (cynomolgus monkey) (UniProt Q95LI5); assay: as above
Chain of UniProt Q95LI5 (Q95LI5 22-117, stated change not applied, chain 1 of 2): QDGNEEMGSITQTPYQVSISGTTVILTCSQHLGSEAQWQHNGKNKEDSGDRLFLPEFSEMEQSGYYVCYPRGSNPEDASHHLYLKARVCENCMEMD
Chain of UniProt Q95LI5 (Q95LI8 22-105, stated change not applied, chain 2 of 2, further chain): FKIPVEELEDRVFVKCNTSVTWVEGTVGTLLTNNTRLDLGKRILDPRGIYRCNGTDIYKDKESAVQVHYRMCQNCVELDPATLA

Chain of UniProt P07766 (P07766 23-126, stated change not applied, chain 1 of 2): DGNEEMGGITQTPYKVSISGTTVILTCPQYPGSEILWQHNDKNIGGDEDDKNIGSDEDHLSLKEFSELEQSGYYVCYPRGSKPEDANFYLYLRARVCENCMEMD
Chain of UniProt P07766 (P04234 22-105, stated change not applied, chain 2 of 2, further chain): as the sequence (Q95LI8 22-105, stated change not applied, chain 2 of 2, further chain) above, with V5I, K15N, V20I, T32S, N33D, N34I, A64T, N74S, L83V counted along it

Kd [1]: 9 nM
koff [1]: 0.005 s⁻¹
kon [1]: 570000 M⁻¹ s⁻¹
Kd [2]: 9.2 nM
koff [2]: 0.005 s⁻¹
kon [2]: 550000 M⁻¹ s⁻¹
B1: DART-A (sequence-optimized CD123×CD3 bispecific diabody) (bispecific antibody)
chain 1: QAVVTQEPSLTVSPGGTVTLTCRSSTGAVTTSNYANWVQQKPGQAPRGLIGGTNKRAPWTPARFSGSLLGGKAALTITGAQAEDEADYYCALWYSNLWVFGGGTKLTVLGGGGSGGGGEVQLVQSGAELKKPGASVKVSCKASGYTFTDYYMKWVRQAPGQGLEWIGDIIPSNGATFYNQKFKGRVTITVDKSTSTAYMELSSLRSEDTAVYYCARSHLLRASWFAYWGQGTLVTVSSGGCGGGEVAALEKEVAALEKEVAALEKEVAALEK
chain 2: DFVMTQSPDSLAVSLGERVTMSCKSSQSLLNSGNQKNYLTWYQQKPGQPPKLLIYWASTRESGVPDRFSGSGSGTDFTLTISSLQAEDVAVYYCQNDYSYPYTFGQGTKLEIKGGGSGGGGEVQLVESGGGLVQPGGSLRLSCAASGFTFSTYAMNWVRQAPGKGLEWVGRIRSKYNNYATYYADSVKDRFTISRDDSKNSLYLQMNSLKTEDTAVYYCVRHGNFGNSYVSWFAYWGQGTLVTVSSGGCGGGKVAALKEKVAALKEKVAALKEKVAALKE
